Data from article PMC8530329 (2021).

How the values were obtained:
[1] = target: T1, SARS-CoV-2 RBD-Flag-His protein (SARS-CoV-2, UniProt P0DTC2 319-541); test: BLI
[2] = target: T1, SARS-CoV-2 RBD-Flag-His protein; test: BLI; remark: listed apart in the source

B1: RBD-chAb-45 (antibody, V domains shown)
VH: EVQLQQSGPELVKPGASVKISCKTSGYTFTEYTIYWVKQSLGKSLEWIGGNNPNNDDTTYKQFFKGKATLTVDKSSSTAYMELRSLTSEDSAVYYCARDGYPYYYALDFWGQGTSVTVSS
VL: DIVMTQSQKFMSTSVGDRVSVTCKSSQNVGTNVAWYQQKPGQSPKALIYSASYRYSGVPDHFTGSGSGTDFTLTISNVQSADLAEYFCQQYNNYPWTFGGGTKLEIK
B1 was tested. Which Kd [1] did it give?
Its Kd is 0.282 nM.

And the koff [2]?
The koff was 0.000282 s⁻¹.
